Measurements: CN114702578A (BAISI MEDICAL DIAGNOSTICS TECH BEIJING CO LTD, dated 2022)

Key:
[1] = target: T1, 新型冠状病毒Alpha突变株Spike RBD蛋白 (新型冠状病毒Alpha突变株 (SARS-CoV-2 Alpha …, UniProt P0DTC2 319-537)); assay: indirect ELISA, RBD coated at 2 μg/mL
T1 construct: domain: Spike RBD; also called Alpha SPIKE RBD蛋白

[2] = target: T2, 新型冠状病毒Gamma突变株Spike RBD蛋白 (新型冠状病毒Gamma突变株 (SARS-CoV-2 Gamma …, UniProt P0DTC2 319-537)); assay: indirect ELISA, RBD coated at 2 μg/mL
T2 construct: domain: Spike RBD; also called Gamma SPIKE RBD蛋白

新型冠状病毒Beta突变株Spike RBD蛋白 [3] = target: T3, 新型冠状病毒Beta突变株Spike RBD蛋白 (新型冠状病毒Beta突变株 (SARS-CoV-2 Beta variant), UniProt P0DTC2 319-537); assay: indirect ELISA, RBD coated at 2 μg/mL
T3 construct: domain: Spike RBD; also called Beta SPIKE RBD蛋白

[4] = target: T4, 新型冠状病毒Delta突变株Spike RBD蛋白 (新型冠状病毒Delta突变株 (SARS-CoV-2 Delta …, UniProt P0DTC2 319-537)); assay: indirect ELISA, RBD coated at 2 μg/mL
T4 construct: domain: Spike RBD; also called Delta SPIKE RBD蛋白

[5] = target: T1, 新型冠状病毒Alpha突变株Spike RBD蛋白; assay: ELISA binding experiment (Fig. 3)
[6] = target: T2, 新型冠状病毒Gamma突变株Spike RBD蛋白; assay: ELISA binding experiment (Fig. 3)
新型冠状病毒Beta突变株Spike RBD蛋白 [7] = target: T3, 新型冠状病毒Beta突变株Spike RBD蛋白; assay: ELISA binding experiment (Fig. 3)
[8] = target: T4, 新型冠状病毒Delta突变株Spike RBD蛋白; assay: ELISA binding experiment (Fig. 3)
[9] = target: 新型冠状病毒Omicron突变株Spike RBD蛋白 (新型冠状病毒Omicron突变株 (SARS-CoV-2 Omicron …, UniProt P0DTC2 319-537))

| Binder | binding result [1] | binding result [2] | binding result (新型冠状病毒Beta突变株Spike RBD蛋白 [3]) | binding result [4] | binding result [5] | binding result [6] | binding result (新型冠状病毒Beta突变株Spike RBD蛋白 [7]) | binding result [8] | Kd [9] [nM] |
| --- | --- | --- | --- | --- | --- | --- | --- | --- | --- |
| 克隆号为3C6E1的抗体 (antibody, V domains shown) VH: EVQLVESGGGLIQPGGSLGLSCAASGFTVSSNYMSWVRQAPGRGLEWVSVIYGGGSTTYADSVKGRFTISRDNSKNTLNLQMNSLRAEDTAVYYCARGGRFLHVFDIWGQGTVVTVSS VL: QSALTQPASVSGSPGQSITISCTGTSSDIGGYNYVSWYQQHPGKAPKLMIYDVTKRPSGVSNRFSGSKSGNTASLTISGLQAEDEADYHCSSYTSSSTRWVFGGGTKLTVL | no binding (tested: 1 μg/mL) | no binding (tested: 1 μg/mL) | no binding (tested: 1 μg/mL) | no binding (tested: 1 μg/mL) | – | – | – | – | – |
| 克隆号为1B12G6的抗体 (antibody, V domains shown) VH: QVQLVQSGAEVKKPGSSVKVSCKASGGTFSSYTISWVRQAPGQGLEWLGRIIPILNIANYAQKFQGRVTITADKSTSTAYMELSSLRSEDTAVYYCARDGRASGLGATHYFDYWGQGTLVTVSS VL: QSVLTQPPSVSGAPGQRVTISCTGSSSNIGAGYNVHWYQQLPGTAPKLLIYGNSNRPSGVPDRFSGSKSGTSASLAITGLQAEDEADYYCQSYDSSLSGSVFGGGTKLTVL | no binding (tested: 1 μg/mL) | no binding (tested: 1 μg/mL) | no binding (tested: 1 μg/mL) | no binding (tested: 1 μg/mL) | – | – | – | – | – |
| 克隆号为9A5C5的抗体 (antibody, V domains shown) VH: EVQLQQSGPELVKPGASVKISCKTSGYTFTEYTMHWVKQSHGKSLEWIGGINPNNGGTTYNQKFKGKATLTVDKSSSTAYMELRSLTSEDSAVYYCARDGYSFFDYWGQGTTLTVSS VL: DIVLTQSPASLAVSLGQRATISCRASKSVSTSGYSYMHWYQQKPGQPPKLLIYLASNLESGVPARFSGSGSGTDFTLNIHPVEEEDAATYYCQHSRELFTFGSGTKLEIK | no binding (tested: 1 μg/mL) | no binding (tested: 1 μg/mL) | no binding (tested: 1 μg/mL) | no binding (tested: 1 μg/mL) | – | – | – | – | – |
| 克隆号为3A7C12的抗体 (antibody, V domains shown, also called 3A7C12克隆号抗体) VH: EVQLVESGGGLVKPGGSLRLSCAASGFTFSSYSMNWVRQAPGKGLEWVSSISSGSSYIYFADSVKGRFTISRDNAKNSLFLQMNSLRAEDTATYYCARAPLGYDSSGYFTMYYFDYWGQGTLVTVSS VL: not shown | – | – | – | – | no binding | no binding | no binding | no binding | 9.07 |
